The source of these data is patent US20230012273A1 (Boehringer Ingelheim, published 2023).

Positions count from the first letter of the chain named. Like-named read-outs stand apart in the source and are kept apart here.

The target in assay [1] is T1, full-length human SIRPγ (NP_061026.2) on cells (human, UniProt Q9P1W8 29-387).
T1 construct: also called CHO-hSIRPγ; γ WT
Description: flow cytometry, primary CD3+ T cells. The method, then: (§1) Antibody binding to primary human T cells expressing endogenous SIRPγ is evaluated by flow cytometry. Human peripheral blood mononuclear cells (PBMCs) are blocked with donkey IgG and incubated on ice with increasing concentrations of antibody for 60 minutes, washed and stained with AF647-conjugated donkey F(ab′)₂ anti-human IgG secondary reagent. […] Cells are washed, fixed, and analyzed by flow cytometry. Median fluorescent intensity of CD3+ gated population is determined and used as a measure of antibody binding.
In general terms: A flow cytometer gives signals particle by particle.
T1 sequence (Q9P1W8 29-387): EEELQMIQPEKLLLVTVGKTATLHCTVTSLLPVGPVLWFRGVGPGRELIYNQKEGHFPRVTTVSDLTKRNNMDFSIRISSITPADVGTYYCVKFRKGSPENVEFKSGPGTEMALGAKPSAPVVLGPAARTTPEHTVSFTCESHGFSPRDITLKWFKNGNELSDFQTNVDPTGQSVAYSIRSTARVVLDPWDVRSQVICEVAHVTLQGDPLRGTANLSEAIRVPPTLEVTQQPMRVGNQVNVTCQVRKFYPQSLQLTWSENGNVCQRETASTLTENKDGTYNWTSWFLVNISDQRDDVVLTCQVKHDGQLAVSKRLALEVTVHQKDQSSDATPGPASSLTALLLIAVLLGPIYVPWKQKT

The target of assay [2] is T2, full-length human SIRPαV2 (CAA71403.1) on cells (human, UniProt P78324 31-504).
T2 construct: one molecule for CHO-K1 and Expi-CHO transfectants (CAA71403.1) and for endogenous V2 on THP-1 cells and on CD14+ monocytes of V2/V2 donors; also called CHO-hSIRPαV2; αV2 WT
Description: flow cytometry, competition with CD47 tetramer, monocytes V2V2. The method, then: (§2) Cells are washed, fixed, and analyzed by flow cytometry. Median fluorescent intensity of CD14+gated population is determined and used as a measure of CD47 binding.

For assay [3], the target named is T3, full-length human SIRPαV1 (NP_542970.1) on cells (human, UniProt P78324 31-504).
T3 construct: one molecule for CHO-K1 and Expi-CHO transfectants (NP_542970.1) and for endogenous V1 on U-937 cells and on CD14+ monocytes of V1/V1 donors; also called CHO-hSIRPαV1; αV1 WT
Description: flow cytometry, competition with CD47 tetramer, monocytes V1V1. The method, then:
as §2

Assay [4] deals with T2, full-length human SIRPαV2 (CAA71403.1) …. The assay is described as follows: flow cytometry, CD14+ monocytes V2V2. The method, then:
as §1, with “human” for “human T”, “expressing SIRPα” for “expressing endogenous SIRPγ”, “(PBMCs) from donors genotyped as homozygous for the SIRPα V1 allele, V2 allele, or heterozygous for both alleles” for “(PBMCs)”, “of the CD14+” for “of CD3+ gated”, “population was” for “population is”

Assay [5] has as its target T4, full-length human SIRPβL (NP_001129316.1) on cells (human, UniProt Q5TFQ8 30-398).
T4 construct: one molecule for U937 SIRPα-KO transfectants (NP_001129316.1) and Expi-CHO transfectants (Q5TFQ8); also called SIRPβ1v3; βL WT
The assay is described as follows: flow cytometry, U937 SIRPα-KO transfectants. The method, then:
(§3) Antibody binding to cells expressing full-length human SIRPβ1 (NP_006056.2) and SIRPβL (NP_001129316.1) is evaluated by flow cytometry. SIRPβ1- or SIRPβL-expressing U937^{SIRPα KO} cells are blocked with donkey IgG and incubated on ice with increasing concentrations of antibodies for 60 minutes, washed and stained with AF647-conjugated donkey F(ab′)₂ anti-human IgG secondary reagent. Cells are washed, fixed, and analyzed by flow cytometry. Median fluorescent intensity is determined and used as a measure of antibody binding.

In assay [6] the target is T5, full-length human SIRPβ1 (NP_006056.2) on cells (human, UniProt O00241 30-398).
T5 construct: also called β1 WT
Description: flow cytometry, U937 SIRPα-KO transfectants. The method, then: as §3

Assay [7] deals with T3, full-length human SIRPαV1 (NP_542970.1) …. The assay is described as follows: flow cytometry, CD14+ monocytes V1V1. The method, then: as §1, with “human” for “human T”, “expressing SIRPα” for “expressing endogenous SIRPγ”, “(PBMCs) from donors genotyped as homozygous for the SIRPα V1 allele, V2 allele, or heterozygous for both alleles” for “(PBMCs)”, “of the CD14+” for “of CD3+ gated”, “population was” for “population is”

The target of assay [8] is T6, mouse SIRPα extracellular domain + His-tag (NP_031573) (mouse, UniProt P97797 32-373).
T6 chain: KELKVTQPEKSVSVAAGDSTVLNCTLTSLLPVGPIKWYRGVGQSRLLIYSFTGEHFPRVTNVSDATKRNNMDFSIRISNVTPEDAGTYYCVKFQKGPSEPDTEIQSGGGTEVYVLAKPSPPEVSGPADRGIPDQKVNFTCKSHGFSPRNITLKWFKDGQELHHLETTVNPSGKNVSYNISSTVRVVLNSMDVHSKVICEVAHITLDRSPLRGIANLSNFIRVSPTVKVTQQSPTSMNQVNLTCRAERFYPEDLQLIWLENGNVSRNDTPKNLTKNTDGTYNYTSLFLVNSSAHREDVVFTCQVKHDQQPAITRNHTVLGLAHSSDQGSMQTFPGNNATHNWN
Description: SPR, Ab captured, ECD-His analyte. The method, then: (§4) The binding affinity of anti-SIRPα antibodies to the various SIRPα analytes is determined by surface plasmon resonance (SPR) using a ProteOn XPR36 (Bio-Rad). The running buffer for this experiment and all dilutions (except where stated) are done in 1×HBS-EP+. […] The sensorchip is deactivated with 1M ethanolamine HCl for 420 sec at a flowrate of 10 μl/min.
(§5) The analyte is injected over the captured antibody for 300 sec at a flowrate of 30 μl/min. The dissociation is done for 600 sec. Two-fold serial dilutions of each SIRP protein (Extracellular Domain+His-Tag) are injected as analyte with the highest concentrations indicated in table 36 below.
(SPR reads the build-up and loss of mass on a sensor chip optically.)

For assay [9], the target named is T7, cynomolgus SIRPα extracellular domain + His-tag (NP_001271679) (cynomolgus monkey).
T7 construct: also called CySIRPα NP_001271679; cynoSIRPα
T7 chain: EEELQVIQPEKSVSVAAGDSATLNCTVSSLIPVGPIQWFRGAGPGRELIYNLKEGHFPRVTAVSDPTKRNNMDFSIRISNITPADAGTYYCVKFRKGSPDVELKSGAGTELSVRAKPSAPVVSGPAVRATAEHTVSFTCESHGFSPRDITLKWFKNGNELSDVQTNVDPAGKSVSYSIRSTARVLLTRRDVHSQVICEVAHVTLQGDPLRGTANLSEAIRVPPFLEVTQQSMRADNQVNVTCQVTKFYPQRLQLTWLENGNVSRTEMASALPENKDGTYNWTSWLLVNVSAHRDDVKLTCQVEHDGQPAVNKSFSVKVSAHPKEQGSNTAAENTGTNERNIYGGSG
The assay is described as follows: SPR, Ab captured, ECD-His analyte. The method, then: as §4, §5

Assay [10] has as its target T8, human SIRPγ extracellular domain + His-tag (NP_061026.2) (human, UniProt Q9P1W8 29-360).
T8 construct: also called hSIRPγ; HuSIRPγ
Description: SPR, Ab captured, ECD-His analyte. An outline of the steps: (§6)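 SPR; Ab capture surface, ethanolamine-deactivated (1M, 420 s, 10 μl/min). Analyte: SIRP ECD+His, 2-fold dilution series in 1×HBS-EP+. Inject 300 s @ 30 μl/min; dissoc. 600 s.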

Assay [11] deals with T9, human SIRPαV1 extracellular domain + His-tag (NP_542970.1) (human, UniProt P78324 31-373).
T9 construct: also called hSIRPαV1; HuSIRPαV1
Description: SPR, Ab captured, ECD-His analyte. The method in brief:
as §6

Assay [12] has as its target T10, human SIRPαV2 extracellular domain + His-tag (CAA71403.1) (human, UniProt P78324 31-373).
T10 construct: also called hSIRPαV2; HuSIRPαV2
The assay is described as follows: SPR, Ab captured, ECD-His analyte. The method in brief: as §6

In assay [13] the target is T9, human SIRPαV1 extracellular domain + …. Description: SPR, Ab captured, ECD-His analyte. The method in brief:
as §6
The source holds these as a separate data set.

The target in assay [14] is T11, human SIRPβL/SIRPβ1v3 extracellular domain + His-tag (NP_001129316.1) (human, UniProt Q5TFQ8 30-371).
T11 construct: also called hSIRPβ1v3; HuSIRPβ1v3
Description: SPR, Ab captured, ECD-His analyte. An outline of the steps: as §6

In assay [15] the target is T12, human SIRPβ1 extracellular domain + His-tag (NP_006056.2) (human, UniProt O00241 30-371).
T12 construct: also called hSIRPβ1; HuSIRPβ1
The assay is described as follows: SPR, Ab captured, ECD-His analyte. The method in brief:
as §6

Assay [16] has as its target T10, human SIRPαV2 extracellular domain + …. The assay is described as follows: SPR, Ab captured, ECD-His analyte. The method in brief: as §6
This is another data set of the same source.

For assay [17], the target named is full-length human SIRPβ1 D→H on Expi-CHO cells (human, UniProt O00241 30-398). Description: flow cytometry, Expi-CHO cells. The method, then: These cells are blocked with donkey IgG and incubated on ice with increasing concentrations of antibodies for 60 minutes, washed and stained with AF647-conjugated donkey F(ab′)₂ anti-human IgG antibodies. Stained cells are washed, fixed, and analyzed by flow cytometry. Median fluorescent intensity is determined and used as a measure of antibody binding.

Assay [18] has as its target T11, human SIRPβL/SIRPβ1v3 extracellular …. The assay is described as follows: SPR, Ab captured, ECD-His analyte. The method in brief: as §6
The source holds these as a separate data set.

Assay [19] has as its target T12, human SIRPβ1 extracellular domain + …. Description: SPR, Ab captured, ECD-His analyte. The method in brief: as §6
This is another data set of the same source.

For assay [20], the target named is T13, full-length human SIRPγ (NP_061026.2) on cells (human, UniProt Q9P1W8 29-387).
T13 construct: on CHO and Expi-CHO cells; endogenous on primary human CD3+ T cells; also called γ WT
Description: flow cytometry, primary human CD3+ T cells. The method, then: as §1
T13 sequence (Q9P1W8 29-387): as the sequence (Q9P1W8 29-387) above

What is called EC50 is the midpoint of the concentration-response curve. Broadly, the IC50 is the point on the concentration scale where inhibition reaches its midpoint. A higher IC50 goes with lower potency. The term Kd denotes the concentration at which binding is half-saturated.

T10 sequence (P78324 other isoform, or with tags, fused parts or gaps): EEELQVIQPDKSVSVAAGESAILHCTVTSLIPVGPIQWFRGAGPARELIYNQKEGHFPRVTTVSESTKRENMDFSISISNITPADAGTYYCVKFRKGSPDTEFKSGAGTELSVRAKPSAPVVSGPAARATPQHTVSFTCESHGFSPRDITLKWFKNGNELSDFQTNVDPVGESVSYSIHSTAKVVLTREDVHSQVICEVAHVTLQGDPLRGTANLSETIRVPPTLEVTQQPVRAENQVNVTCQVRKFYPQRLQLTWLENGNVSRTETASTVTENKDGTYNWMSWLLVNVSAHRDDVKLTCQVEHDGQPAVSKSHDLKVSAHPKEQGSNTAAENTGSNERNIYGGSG
T9 sequence (P78324 other isoform, or with tags, fused parts or gaps): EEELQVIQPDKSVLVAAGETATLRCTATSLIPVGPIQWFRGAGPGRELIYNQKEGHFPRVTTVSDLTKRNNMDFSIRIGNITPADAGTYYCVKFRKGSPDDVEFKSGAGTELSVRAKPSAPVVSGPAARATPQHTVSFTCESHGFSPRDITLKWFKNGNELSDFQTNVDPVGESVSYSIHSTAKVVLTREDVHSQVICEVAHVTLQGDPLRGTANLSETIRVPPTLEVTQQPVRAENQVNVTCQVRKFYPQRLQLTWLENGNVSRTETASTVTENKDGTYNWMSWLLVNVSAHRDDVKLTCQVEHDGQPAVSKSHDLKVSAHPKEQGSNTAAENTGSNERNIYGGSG
T12 sequence (O00241 other isoform, or with tags, fused parts or gaps): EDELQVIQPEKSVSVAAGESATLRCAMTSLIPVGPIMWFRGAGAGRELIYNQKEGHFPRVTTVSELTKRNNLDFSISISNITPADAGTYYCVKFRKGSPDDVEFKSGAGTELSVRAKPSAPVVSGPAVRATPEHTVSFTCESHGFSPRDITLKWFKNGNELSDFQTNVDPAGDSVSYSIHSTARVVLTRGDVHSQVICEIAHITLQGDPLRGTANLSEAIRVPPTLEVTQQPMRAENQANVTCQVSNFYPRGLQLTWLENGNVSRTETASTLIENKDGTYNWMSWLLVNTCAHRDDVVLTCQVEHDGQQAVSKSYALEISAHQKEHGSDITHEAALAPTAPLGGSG
T8 sequence (Q9P1W8 29-360): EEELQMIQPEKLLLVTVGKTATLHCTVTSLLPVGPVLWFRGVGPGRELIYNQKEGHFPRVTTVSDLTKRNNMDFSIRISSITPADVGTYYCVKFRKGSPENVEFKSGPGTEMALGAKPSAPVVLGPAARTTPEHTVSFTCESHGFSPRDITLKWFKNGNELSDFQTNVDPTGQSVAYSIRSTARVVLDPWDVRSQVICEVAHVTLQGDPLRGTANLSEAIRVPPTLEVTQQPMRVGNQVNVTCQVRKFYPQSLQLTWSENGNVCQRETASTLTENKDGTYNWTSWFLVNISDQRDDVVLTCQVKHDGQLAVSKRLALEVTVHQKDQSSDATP
T11 sequence (Q5TFQ8 other isoform, or with tags, fused parts or gaps): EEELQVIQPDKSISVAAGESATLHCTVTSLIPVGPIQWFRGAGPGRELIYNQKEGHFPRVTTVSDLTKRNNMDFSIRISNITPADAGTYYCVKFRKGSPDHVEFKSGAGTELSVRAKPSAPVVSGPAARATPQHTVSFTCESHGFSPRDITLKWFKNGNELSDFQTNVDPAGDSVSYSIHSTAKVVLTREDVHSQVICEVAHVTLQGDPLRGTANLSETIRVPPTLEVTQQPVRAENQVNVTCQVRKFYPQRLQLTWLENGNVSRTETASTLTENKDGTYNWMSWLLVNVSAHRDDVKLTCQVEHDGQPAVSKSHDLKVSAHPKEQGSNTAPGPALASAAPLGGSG
T2 sequence (P78324 other isoform, or with tags, fused parts or gaps): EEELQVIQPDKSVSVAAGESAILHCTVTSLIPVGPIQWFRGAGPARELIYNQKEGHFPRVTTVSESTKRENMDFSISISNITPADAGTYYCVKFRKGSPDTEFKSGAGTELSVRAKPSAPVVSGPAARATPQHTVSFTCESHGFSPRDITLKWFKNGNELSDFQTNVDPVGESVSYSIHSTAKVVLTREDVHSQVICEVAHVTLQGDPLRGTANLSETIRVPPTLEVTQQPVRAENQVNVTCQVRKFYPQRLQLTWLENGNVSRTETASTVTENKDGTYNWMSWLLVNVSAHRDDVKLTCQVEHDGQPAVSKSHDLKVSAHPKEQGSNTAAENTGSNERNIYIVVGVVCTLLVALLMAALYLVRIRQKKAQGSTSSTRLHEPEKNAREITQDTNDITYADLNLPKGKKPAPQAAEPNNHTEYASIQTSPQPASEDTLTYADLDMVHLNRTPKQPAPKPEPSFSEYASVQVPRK
T3 sequence (P78324 31-504): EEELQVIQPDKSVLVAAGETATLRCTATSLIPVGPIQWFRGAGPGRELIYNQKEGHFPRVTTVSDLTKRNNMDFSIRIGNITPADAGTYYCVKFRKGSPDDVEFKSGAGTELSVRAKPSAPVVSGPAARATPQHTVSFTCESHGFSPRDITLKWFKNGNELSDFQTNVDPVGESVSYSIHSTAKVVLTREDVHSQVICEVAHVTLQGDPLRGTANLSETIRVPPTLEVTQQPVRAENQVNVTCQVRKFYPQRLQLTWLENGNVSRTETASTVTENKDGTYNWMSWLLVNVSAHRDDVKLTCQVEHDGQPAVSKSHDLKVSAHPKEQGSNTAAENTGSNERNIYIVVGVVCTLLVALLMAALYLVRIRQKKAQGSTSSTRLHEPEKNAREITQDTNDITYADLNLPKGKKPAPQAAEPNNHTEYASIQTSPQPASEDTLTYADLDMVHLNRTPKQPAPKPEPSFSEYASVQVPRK
T5 sequence (O00241 30-398): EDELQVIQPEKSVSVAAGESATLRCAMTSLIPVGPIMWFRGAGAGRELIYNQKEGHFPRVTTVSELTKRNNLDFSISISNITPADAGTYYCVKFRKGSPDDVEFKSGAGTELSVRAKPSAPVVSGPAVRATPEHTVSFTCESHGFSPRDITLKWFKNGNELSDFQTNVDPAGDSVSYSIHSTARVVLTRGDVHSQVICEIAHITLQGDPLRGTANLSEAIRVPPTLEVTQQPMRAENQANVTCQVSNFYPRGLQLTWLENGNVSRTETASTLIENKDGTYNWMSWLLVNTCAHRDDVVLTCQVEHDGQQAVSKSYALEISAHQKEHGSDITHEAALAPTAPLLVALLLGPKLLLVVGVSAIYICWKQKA
Sequence of full-length human SIRPβ1 D→H on Expi-CHO cells (O00241 30-398 D130H): as the sequence (O00241 30-398) above, with D101H counted along it
T4 sequence (Q5TFQ8 30-398): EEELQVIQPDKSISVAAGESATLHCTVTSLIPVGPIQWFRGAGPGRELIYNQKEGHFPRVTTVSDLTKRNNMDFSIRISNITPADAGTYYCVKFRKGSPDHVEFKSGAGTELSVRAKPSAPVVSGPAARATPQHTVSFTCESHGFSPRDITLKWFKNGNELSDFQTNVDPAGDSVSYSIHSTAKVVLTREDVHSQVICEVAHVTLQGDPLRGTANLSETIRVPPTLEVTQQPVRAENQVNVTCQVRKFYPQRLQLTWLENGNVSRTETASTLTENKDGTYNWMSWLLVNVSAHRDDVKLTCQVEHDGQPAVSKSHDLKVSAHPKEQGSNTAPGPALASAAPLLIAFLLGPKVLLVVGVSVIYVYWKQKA

B1: anti-SIRPα antibody SIRP AB11 (antibody, V domains shown)
VH: QVQLVQSGAEVKKPGASVKVSCKASGYTFRGYGISWVRQAPGQGLEWMGWISAYGGETNYAQKLQGRVTMTTDTSTSTAYMELRSLRSDDTAVYYCAREAGSSWYDFDLWGRGTLVTVSS
VL: DIQMTQSPSSVSASVGDRVTITCRASQGISSWLAWYQQKPGKAPKLLIYAASNLQSGVPSRFSGSGSGTDFTLTISSLQPEDFATYYCQQGASFPITFGGGTKVEIKR
For the molecule B1, the EC50 in assay [1] came out at 0.02 nM; in assay [4], 0.1 nM; in assay [5], 0.2 nM; in [6] it was 0.1 nM; in [7], 0.1 nM. Besides, the IC50 in assay [2] stood at 0.05 nM; in assay [3] it was 0.02 nM.

B2: Antibody B (antibody, human IgG1, kappa, L234A L235A, V domains shown)
VH: QVQLVQSGAEVKKPGASVKVSCKASGYTFTGNYMHWVRQAPGQGLEWMGWINPNSGGTNYAQKFQGRVTMTRDTSISTAYMELSRLRSDDTAVYYCVSGSGWYENYYYYGMDVWGQGTTVTVSS
VL: B1 VL with A51E, N53S, G91A, A92N, I96L
Regarding B2, the binding result in assay [8] is given as “no binding”; in assay [9], “no binding (tested: 1000 nM)”; in assay [10] it was “no binding (tested: 1000 nM)”. Moreover, the Kd was 17.4 nM in assay [11] and 71.5 nM in assay [12].

B3: Antibody E (antibody, human IgG1, kappa, L234A L235A)
heavy: not shown
light: DIVMTQSPLSLPVTPGEPASISCKSSQSLLYSNGYNYLDWYLQRPGQSPQLLIYLGSNRASGVPDRFSGSGSGTDFTLKISRVEAEDVGVFYCMQALQTPLTFGGGTKVEIKRTVAAPSVFIFPPSDEQLKSGTASVVCLLNNFYPREAKVQWKVDNALQSGNSQESVTEQDSKDSTYSLSSTLTLSKADYEKHKVYACEVTHQGLSSPVTKSFNRGEC
B3: the figures for the binding result in [8], in assay [17] and in assay [10] were “no binding”, “no binding” and “no binding (tested: 1000 nM)”, respectively. The Kd in assay [13] turned out to be 0.425 nM; in assay [14], 0.81 nM; in [15], 771 nM; in assay [16], 0.33 nM; in assay [11] it was 0.456 nM; in assay [18], 1.16 nM. In addition, the Kd in assay [19] is 1230 nM; in [12], 0.42 nM.

B4: Antibody G (antibody, human IgG4 S228P, kappa)
heavy: not shown
light: B3 light
For B4, the binding result in [8] was “no binding”; in assay [10] it was “no binding (tested: 1000 nM)”; in assay [20], “no binding”. The Kd is 0.497 nM in [11], 1.27 nM in [18], 1270 nM in [19] and 0.465 nM in [12].
